# Test results reported in paper PMC7241714, “Structure-function investigation of 3-methylaspartate ammonia lyase reveals substrate molecular determinants for the deamination reaction” (PLoS ONE, 2020).
# Like-named read-outs stand apart in the source and are kept apart here.
# B1: 3-methylaspartate ammonia lyase (ChMAL) (Carboxydothermus hydrogenoformans Z-2901) (protein)
# chain: MRIKDVLFVKGSSGFYFDDQKAIKSGAVTDGFTYKGKPLTPGFSRVRQGGEAVSIMLFLENGEIAVGDCVAVQYSGVDGRDPVFLADNFIEVLEEEIKPRLVGYNLVRFREAARYFTNLTDKRGKRYHTALRYGLTQALLDAVAKINRTTMAEVIAEEYGLDLTLNPVPLFAQSGDDRYINADKMILKRVDVLPHGLFNHPAKTGEEGKNLTEYALWLKQRIKTLGDHDYLPVFHFDVYGTLGTVFNDNLDRIADYLARLEEKVAPHPLQIEGPVDLGSKERQIEGLKYLQEKLITLGSKVIIVADEWCNNLSDIKEFVDAGAGGMVQIKSPDLGGVNDIIEAVLYAKEKGTGAYLGGSCNETDVSAKITVHVGLATGPAQLLVKPGMGVDEGLTIMRNEMMRTLAILQRNKVTFQKKVG
# notes: C-terminal His-tag
# B2: 3-methylaspartate ammonia lyase (CtMAL) (Clostridium tetanomorphum) (protein)
# chain: MKIVDVLCTPGLTGFYFDDQRAIKKGAGHDGFTYTGSTVTEGFTQVRQKGESISVLLVLEDGQVAHGDCAAVQYSGAGGRDPLFLAKDFIPVIEKEIAPKLIGREITNFKPMAEEFDKMTVNGNRLHTAIRYGITQAILDAVAKTRKVTMAEVIRDEYNPGAEINAVPVFAQSGDDRYDNVDKMIIKEADVLPHALINNVEEKLGLKGEKLLEYVKWLRDRIIKLRVREDYAPIFHIDVYGTIGAAFDVDIKAMADYIQTLAEAAKPFHLRIEGPMDVEDRQKQMEAMRDLRAELDGRGVDAELVADEWCNTVEDVKFFTDNKAGHMVQIKTPDLGGVNNIADAIMYCKANGMGAYCGGTCNETNRSAEVTTNIGMACGARQVLAKPGMGVDEGMMIVKNEMNRVLALVGRRK
# notes: C-terminal His-tag
# B3: 3-methylaspartate ammonia lyase (CaMAL) (Citrobacter amalonaticus) (protein)
# chain: MKIKQALFTAGYSSFYFDDQQAIKNGAGHDGFIYTGDPVTPGFTSVRQAGECVSVQLILENGAVAVGDCAAVQYSGAGGRDPLFLAEHFIPFLNDHIKPLLEGRDVDAFLPNARFFDKLRIDGNLLHTAVRYGLSQALLDATALASGRLKTEVVCDEWQLPCVPEAIPLFGQSGDDRYIAVDKMILKGVDVLPHALINNVEEKLGFKGEKLREYVRWLSDRILSLRSSPRYHPTLHIDVYGTIGLIFDMDPVRCAEYIASLEKEAQGLPLYIEGPVDAGNKPDQIRMLTAITKELTRLGSGVKIVADEWCNTYQDIVDFTDAGSCHMVQIKTPDLGGIHNIVDAVLYCNKHGMEAYQGGTCNETEISARTCVHVALAARPMRMLIKPGMGFDEGLNIVFNEMNRTIALLQTKD
# notes: C-terminal His-tag
# Tests used:
# [1] = molecular target: T1, 3-methylaspartate ammonia lyase (CaMAL) (Citrobacter amalonaticus, UniProt O66145); experiment: steady-state inhibition kinetics of 3-methylaspartate deamination (UV assay); type: biochemical
# T1 construct: C-terminal His-tag
# purified protein [2] = substrate: C[C@H](C(=O)O)[C@H](N)C(=O)O; experiment: purified protein; type: biochemical, Carboxydothermus hydrogenoformans; settings: Mg2+; pH 9.0; 30.0 °C
# purified protein [3] = substrate: C[C@H](C(=O)O)[C@H](N)C(=O)O; experiment: purified protein; type: biochemical, Clostridium tetanomorphum; settings: Mg2+; pH 9.0; 30.0 °C
# purified protein [4] = substrate: N[C@@H](CC(=O)O)C(=O)O; experiment: purified protein; type: biochemical, Clostridium tetanomorphum; settings: Mg2+; pH 9.0; 30.0 °C
# purified protein [5] = substrate: C[C@H](C(=O)O)[C@H](N)C(=O)O; experiment: purified protein; type: biochemical, Citrobacter amalonaticus; settings: Mg2+ catalytic pocket; pH 9.0; 30.0 °C
molecule,measurement,setting,value
NC(CC(=O)O)CC(=O)O [β-glutamic acid],Ki,[1]; read-out: Ki,71 ± 3 mM
NCCC[C@H](N)CC(=O)O [β-lysine],Ki,[1],1.7 ± 0.4 mM
B1,Km,purified protein [2],1380 ± 170 µM
same,kcat,purified protein [2],66 ± 2 s⁻¹
B2,Km,purified protein [3],3990 ± 610 µM
same,kcat,purified protein [3],7.6 ± 0.4 s⁻¹
same,Km,purified protein [4],67000 ± 6000 µM
same,kcat,purified protein [4],1.6 ± 0.1 s⁻¹
B3,Km,purified protein [5],1000 ± 60 µM
same,kcat,purified protein [5],17.6 ± 0.3 s⁻¹
